Measurements published in article doi:10.1101/2020.08.14.250746 (bioRxiv, 2020).

Target: Untagged human calmodulin (recombinant) (human, UniProt P0DP23 1-149)
Experiment: pull-down

FGKTKIFFRAGQVAYLEKLRADKLRAACIRIQKTIRGWLLRKRYLCMQR (domain or fragment) [GFP-myoVa-IQ1 (aa742-791)]: binds.
